Measurements published in patent publication US12187779B2 (dated 2025).

Target: T1, HPV 16 E6 peptide on HLA-A*02:01 (human)
T1 peptide: TIHDIILECV
Assay: multimer staining

B1: E6 TCR (TCR, V domains shown)
Valpha: GQQLNQSPQSMFIQEGEDVSMNCTSSSIFNTWLWYKQDPGEGPVLLIALYKAGELTSNGRLTAQFGITRKDSFLNISASIPSDVGIYFCAGHPSSNSGYALNFGKGTSLLVTP
Vbeta: GAGVSQSPRYKVTKRGQDVALRCDPISGHVSLYWYRQALGQGPEFLTYFNYEAQQDKSGLPNDRFSAERPEGSISTLTIQRTEQRDSAMYRCASSSQTGARTDTQYFGPGTRLTVL
  binding result: recognises
